# Measurements as given in IntAct's records for PubMed 26886794.
# B1: Histone-lysine N-methyltransferase SETD1B (Homo sapiens), Q9UPS6-2 (parent)
# chain: MENSHPPHHHHQQPPPQPGPSGERRNHHWRSYKLMIDPALKKGHHKLYRYDGQHFSLAMSSNRPVEIVEDPRVVGIWTKNKELELSVPKFKIDEFYVGPVPPKQVTFAKLNDNIRENFLRDMCKKYGEVEEVEILYNPKTKKHLGIAKVVFATVRGAKDAVQHLHSTSVMGNIIHVELDTKGETRMRFYELLVTGRYTPQTLPVGELDAVSPIVNETLQLSDALKRLKDGGLSAGCGSGSSSVTPNSGGTPFSQDTAYSSCRLDTPNSYGQGTPLTPRLGTPFSQDSSYSSRQPTPSYLFSQDPAVTFKARRHESKFTDAYNRRHEHHYVHNSPAVTAVAGATAAFRGSSDLPFGAVGGTGGSSGPPFKAQPQDSATFAHTPPPAQATPAPGFKSAFSPYQTPVAHFPPPPEEPTATAAFGARDSGEFRRAPAPPPLPPAEPLAKEKPGTPPGPPPPDTNSMELGGRPTFGWSPEPCDSPGTPTLESSPAGPEKPHDSLDSRIEMLLKEQRTKLLFLREPDSDTELQMEGSPISSSSSQLSPLAPFGTNSQPGFRGPTPPSSRPSSTGLEDISPTPLPDSDEDEELDLGLGPRPPPEPGPPDPAGLLSQTAEVALDLVGDRTPTSEKMDEGQQSSGEDMEISDDEMPSAPITSADCPKPMVVTPGAAAVAAPSVLAPTLPLPPPPGFPPLPPPPPPPPPQPGFPMPPPLPPPPPPPPPAHPAVTVPPPPLPAPPGVPPPPILPPLPPFPPGLFPVMQVDMSHVLGGQWGGMPMSFQMQTQVLSRLMTGQGACPYPPFMAAAAAAASAGLQFVNLPPYRGPFSLSNSGPGRGQHWPPLPKFDPSVPPPGYMPRQEDPHKATVDGVLLVVLKELKAIMKRDLNRKMVEVVAFRAFDEWWDKKERMAKASLTPVKSGEHKDEDRPKPKDRIASCLLESWGKGEGLGYEGLGLGIGLRGAIRLPSFKVKRKEPPDTTSSGDQKRLRPSTSVDEEDEESERERDRDMADTPCELAKRDPKGVGVRRRPARPLELDSGGEEDEKESLSEEQESTEEEEEAEEEEEEEDDDDDDSDDRDESENDDEDTALSEASEKDEGDSDEEETVSIVTSKAEATSSSESSESSEFESSSESSPSSSEDEEEVVAREEEEEEEEEEMVAEESMASAGPEDFEQDGEEAALAPGAPAVDSLGMEEEVDIETEAVAPEERPSMLDEPPLPVGVEEPADSREPPEEPGLSQEGAMLLSPEPPAKEVEARPPLSPERAPEHDLEVEPEPPMMLPLPLQPPLPPPRPPRPPSPPPEPETTDASHPSVPPEPLAEDHPPHTPGLCGSLAKSQSTETVPATPGGEPPLSGGSSGLSLSSPQVPGSPFSYPAPSPSLSSGGLPRTPGRDFSFTPTFSEPSGPLLLPVCPLPTGRRDERSGPLASPVLLETGLPLPLPLPLPLPLALPAVLRAQARAPTPLPPLLPAPLASCPPPMKRKPGRPRRSPPSMLSLDGPLVRPPAGAALGRELLLLPGQPQTPVFPSTHDPRTVTLDFRNAGIPAPPPPLPPQPPPPPPPPPVEPTKLPFKELDNQWPSEAIPPGPRGRDEVTEEYMELAKSRGPWRRPPKKRHEDLVPPAGSPELSPPQPLFRPRSEFEEMTILYDIWNGGIDEEDIRFLCVTYERLLQQDNGMDWLNDTLWVYHPSTSLSSAKKKKRDDGIREHVTGCARSEGFYTIDKKDKLRYLNSSRASTDEPPADTQGMSIPAQPHASTRAGSERRSEQRRLLSSFTGSCDSDLLKFNQLKFRKKKLKFCKSHIHDWGLFAMEPIAADEMVIEYVGQNIRQVIADMREKRYEDEGIGSSYMFRVDHDTIIDATKCGNFARFINHSCNPNCYAKVITVESQKKIVIYSKQHINVNEEITYDYKFPIEDVKIPCLCGSENCRGTLN
# Variants of: B1
# Settings: with ASH2L
row,effect of a mutation on the interaction,Variant
1,disrupting interaction strength,R1819A
